In the DeepSol protein solubility set:

experiment: soluble on expression in E. coli; label from the status in PepcDB or PDB records

Row | Sequence | soluble on expression in E. coli
1 | MGIKKKYGEGKMDIKPIRKKRVYQAIIEQIQQFIRQGQLKPGDKLPSERDLAEKFQVSRTTIKEAIAVMEAIGVLEIRPGVGTFVRETGNHFLDLNYIFGDDDTEIQELMEFRQAIEVEAAYYAAIRGTEDGKRKLTQLFSELEKEVMSGKLPAKSDFSFHMQISSMSQNALFLRIMEFISDKLFKSVTKNAVNTFAGAGDPVRVLQEHRAIYEAILSGDGVKARQAMRYHLESVIARYKGI | soluble
2 | MGITALAFDFGTKSIGCAIGQSITGTAQALPAFKAQDGIPNWEAIEKCLKEWKPDVVIVGLPLNMDGTEQDLTLRARKFANRLQGRFGVNVHLQDERLTTTQARSEIFERGGFKALKKGKIDGVSACLILESWFEYAEY | not soluble
3 | MGKEKVHINIVVIGHVDSGKSTTTGHLIYKCGGIDKRTIEKFEKEAQEMGKGSFKYAWVLDKLKAERERGITIDIALWKFETAKYYITIIDAPGHRDFIKNMITGTSQADCAVLVVACGTGEFEAGISKNGQTREHALLAQTLGVKQLIVACNKMDSTEPPFSEARFTEITNEVSGFIKKIGYNPKAVPFVPISGFNGDNMLEVSSNMPWFKGWAVERKEGNASGKTLLEALDSIIPPQRPTDRPLRLPLQDVYKIGGIGTVPVGRVETGIIKPGMVVTFAPQNVTTEVKSVEMHHESLPEAVPGDNVGFNVKNVSVKDIRRGSVCSDSKQDPAKEARTFHAQVIIMNHPGQISNGYTPVLDCHTAHIACKFNELKEKVDRRTGKKVEDFPKFLKSGDAGIVELIPTKPLCVESFTDYAPLGRFAVRDMRQTVAVGVIKSVEKSDGSSGKVTKSAQKAAPKKK | not soluble
4 | MGKGDPKKPRGKMSSYAFFVQTCREEHKKKHPDASVNFSEFSKKCSERWKTMSAKEKGKFEDMAKADKARYEREMKTYIPPKGETKKKFKDPNAPKRPPSAFFLFCSEYRPKIKGEHPGLSIGDVAKKLGEMWNNTAADDKQPYEKKAAKLKEKYEKDIAAYRAKGKPDAAKKGVVKAEKSKKKKEEEEDEEDEEDEEEEEDEEDEDEEEDDDDE | soluble
5 | MGKKPVVIGVAGGSGSGKTSVARAIYDHFGDHSILVLEQDFYYKDQSHLPFEERLKTNYDHPLAFDNDLLIEHIHKLLRYEPIDKPVYDYTLHTRSSDVIRVEPKDVIIVEGILVLEDERLRNLMDIKVYVDTDPDIRIIRRLIRDMKERGRTFDSVIEQYLSVVRPMHNQFVEPTKRYADVIIPEGGQNVVAIDLMVAKIRTVLEQKAVL | not soluble
6 | MGKLAADQLTLSYDSTVIIDGVDLKIEEGKITALIGANGCGKSTILKSLARLMAPKSGTVLLEGKDIHRQPSKEVAKKLAILPQSPQAPEGLTVEELCYFGRHPHKKLLSKHTQEDHDMVEWALEATGMIELKDRTLDALSGGQRQRAWISMALAQGTDLLLLDEPTTYLDISHQIEVLELLKKLNRDHGRTVVMVLHDLNQAAQYADYLISVLDGKIYNAGTPEDVFTQPFFREVFGLECCIMRSPIDQKPMCLPTGLCPKLRAK | not soluble
7 | MGKMNHQDELPLAKVSEVDEAKRQWLQGMRHPVDTVTEPEPAEILAEFIRQHSAAGQLVARAVFLSPPYLVAEEELSVLLESIKQNGDYADIACLTGSKDDYYYSTQAMSENYAAMSLQVVEQDICRAIAHAVRFECQTYPRPYKVAMLMQAPYYFQEAQIEAAIAAMDVAPEYADIRQVESSTAVLYLFSERFMTYGKAYGLCEWFEVEQFQNP | soluble
8 | MGKNFDEAALLKSLEGVPDAEKVQKLIKKLAESEKQNAELKIKVLDYDKVVKVKDLTEKKLERNNQILLRTEEAKSKLEELCRGLQKANHQTREEACAKMKKLEVERGLAVEQLKVTLKDIEKTMAEGRSKSDSLAEDNKKLSEKFSEIGHQYEEKMKVIDQQIQKKEKYWEEYGKTKDLEIKLLTAKLESASIQVKKSGMEKDELAKIMLEETARVGGALKTEKALREQVQEYSAKYSELTSCLSKSNEAFDKFKDEISRVNKKCMQVEKEGLSYKKKSDEANKKVLVLTMTNQEYAEKIATSDKKIQMLENLCRALRKGEQEPVTTAETTEAN | not soluble
9 | MGKTNDWLDFDQLAEEKVRDALKPPSMYKVILVNDDYTPMEFVIDVLQKFFSYDVERATQLMLAVHYQGKAICGVFTAEVAETKVAMVNKYARENEHPLLCTLEKAGA | soluble
10 | MGKVYIVGAGPGDPDLITVKGLKCIEKADVILYDRLVNKELLSYAKPEADLIYCGKLPNYHTMKQETINTFLIKYAKKGKIVTRLKGGDPFVFGRGGEEAEALAKQGVPFEIVPGISAGIAAPAYAGIPVTHRDASASFAIVTGHRKEDAAEEVKWGNLAKGVETLAVYMGVSNLPYICEQLMKHGKDKSTPAAIIERGTTSMQRTVVGTLGTIVDVAKKEQIQNPSMIVIGEVVRFREKIHWFEKQTESTYQVSGVL | not soluble
11 | MGKYQPSFQTKKGWTEVICGPMFSGKTEKLLHKIKRWKIAKISVVIFKPIIDTRQTNIVKSRNGEYDQAITINSPFEIYDHLVDKNYQIVAIDEAQFFSNEIIEVVTTLNEIGTNVIISGLDTDFRAEPFGCIPQLLAIADVVNKLDAICNVCGSLAQRTQRLVNKNTNDNLVLIGDAEAYEARCKLHHSFLTKKHVTVKTKNFKEQVQGKTQLEHHHHHH | not soluble
12 | MGLEKVVLTGLGAGLIAVAARGQNPLATALKIEQNDEGETVVRDAVTIGKPAEQLYAVWRDLPGLPLLMTHLRSVEVLDDKRSRWTVEAPAPLGTVSWEAELTADEPGKRIAWRSLPGARIENSGEVLFRPAPGARGTEVVVRLTYRPPGGSAGAVIARMFNQEPSQQLRDDLMRFKREQELGLEHHHHHH | soluble
13 | MGLELEWMPIEDLKLPSNVIEIIKKRGIKKLNPPQTEAVKKGLLEGNRLLLTSPTGSGKTLIAEMGIISFLLKNGGKAIYVTPLRALTNEKYLTFKDWELIGFKVAMTSGDYDTDDAWLKNYDIIITTYEKLDSLWRHRPEWLNEVNYFVLDELHYLNDPERGPVVESVTIRAKRRNLLALSATISNYKQIAKWLGAEPVATNWRPVPLIEGVIYPERKKKEYNVIFKDNTTKKVHGDDAIIAYTLDSLSKNGQVLVFRNSRKMAESTALKIANYMNFVSLDENALSEILKQLDDIEEGGSDEKELLKSLISKGVAYHHAGLSKALRDLIEEGFRQRKIKVIVATPTLAAGVNLPARTVIIGDIYRFNKKIAGYYDEIPIMEYKQMSGRAGRPGFDQIGESIVVVRDKEDVDRVFKKYVLSDVEPIESKLGSERAFYTFLLGILSAEGNLSEKQLENFAYESLLAKQLVDVYFDRAIRWLLEHSFIKEEGNTFALTNFGKRVADLYINPFTADIIRKGLEGHKASCELAYLHLLAFTPDGPLVSVGRNEEEELIELLEDLDCELLIEEPYEEDEYSLYINALKVALIMKDWMDEVDEDTILSKYNIGSGDLRNMVETMDWLTYSAYHLSRELKLNEHADKLRILNLRVRDGIKEELLELVQISGVGRKRARLLYNNGIKELGDVVMNPDKVKNLLGQKLGEKVVQEAARLLNRFH | soluble
14 | MGLELFLDLVSQPSRAVYIFAKKNGIPLELRTVDLVKGQHKSKEFLQINSLGKLPTLKDGDFILTESSAILIYLSCKYQTPDHWYPSDLQARARVHEYLGWHADCIRGTFGIPLWVQVLGPLIGVQVPEEKVERNRTAMDQALQWLEDKFLGDRPFLAGQQVTLADLMALEELMQPVALGYELFEGRPRLAAWRGRVEAFLGAELCQEAHSIILSILEQAAKKTLPTPSPEAYQAMLLRIARIP | soluble
15 | MGLERFNGVRVDDAERALLTCCRSLRWARRVADHRPYPDLDALLAAADEAAYDLAPADLAEALAGESLTLLPDDAYSVAHTALSAAHAAYESRFGHVFVICLDNAPPGEALDQVLAGIRSRLTNDREEERVLAAEELRRLARGRLARLVRDFSPRPALQRTPLEHHHHHH | not soluble
16 | MGLHYFLDHKKEDLYKSVQDVYKSDDRPWVVGFSGGKDSTVVVQIIFYALASMSKNELTKPVYIISSDTMVENPKILEHIDTQLLKMKKAANELELPIHVEKVMPNIKNTFWVNLIGRGYPAPRQKFRWCTDRLKIDPANNFILNKVSEFGETVVVLGVRKSESSTRAQVMNTHKVEGKILRRHTKLPNSYVYAPIEDFSLDDVWTYLMQVPNPWGADNADLLALYQDSQGECPLVIDNSTPSCGNSRFGCWVCTVVQEDKSLKGFIESGDEWLTPLLKFRNWLLENRDKEDYREKKRANGSVYLIGDEDNKRLGLGPYTLEHRKEILRKLLETEKQLQHPHQPKYELITIEELKEIRKIWFEKGDWEDSVLAIYEEVYGHRPNWDIEESKFLESEDIKLLKKLCHEEEVEFELVQKLVNLEFQHYGYKHRYGILKDINRILNEEWLHFDQLQQGDNYAD | not soluble
17 | MGLNDNKAGMEGLDKEKINKIIMEATKGSRFYGNELKKEKQVNQRIENMMQQKAQITSQQLRKAQLQVDRFAMELEQSRNLSNTIVHIDMDAFYAAVEMRDNPELKDKPIAVGSMSMLSTSNYHARRFGVRAAMPGFIAKRLCPQLIIVPPNFDKYRAVSKEVKEILADYDPNFMAMSLDEAYLNITKHLEERQNWPEDKRRYFIKMGSSVENDNPGKEVNKLSEHERSISPLLFEESPSDVQPPGDPFQVNFEEQNNPQILQNSVVFGTSAQEVVKEIRFRIEQKTTLTASAGIAPNTMLAKVCSDKNKPNGQYQILPNRQAVMDFIKDLPIRKVSGIGKVTEKMLKALGIITCTELYQQRALLSLLFSETSWHYFLHISLGLGSTHLTRDGERKSMSVERTFSEINKAEEQYSLCQELCSELAQDLQKERLKGRTVTIKLKNVNFEVKTRASTVSSVVSTAEEIFAIAKELLKTEIDADFPHPLRLRLMGVRISSFPNEEDRKHQQ | soluble
18 | MGNELIVSVQNRIQEMQHGEGLRLPTGYSVGNALNSAYLILSDNSKGKSLLEKCHPTSVSKALLNMAIQGLSPAKNQCYFVPYGDQCTLMRSYFGSVSILERLSNVKKVHAEVIFEGDEFEIGSEDGRTVVTNFKPSFLNRDNPIIGAFAWVEQTDGIKVYTIMTKKEIYKSWSKAKTKNVQNDYPQEMAKRTVLSRAAKMFINSSSDNDLLVKAINETTEDEYDNNQPRKDITPNPPNIEKLEKSIFNQDENKKIAQDMIDSIDLNQADKDLQEELNIEFPDPSKNYLATGEVNGDVENEDGPYPF | not soluble
19 | MGNYLNPDNSKFQRAVNSDIYVDKTGLIKYTNRVINTMQAYVCVSRPRRFGKSMAADMLTAYYSRGCDSRELFAGLEIAKDENFGGYLNKYDTVFLNVQEFLSRSSDVKELIARIKQRVIRELTRQYPDVELFDSTDLAETMQDIYAESKCPFVLIIDEWDCIFREFKNDKEAQEKYLDFLRDLIKDKSYIHLAYMTGILPIKKYGTHSALNMFDEFSMIDPGPLASYVGFTESEVEKLCGEYQMDIDEIRNWYDGYSFEEVPSVYSPKSVISCMRLGRLGNYWNQTETFEALQLYIDMNFEGLRDDILSMLAGEEVPVNTGSFTNDMATFRTEDDVLTLLIHLGYLGYRYATKTVFIPNGEIRAEFVNAVSVSDWGEVSNALKNSADTLQAIWQGREKQVAEGIRQAHFETSHIQYNDENALSYTISLALYAARNFYTVHRELSGGKGFADLVFIPRKRFMDKPALVVELKWDKDVAGAITQIREKEYCRSLEEYHGKLLLVGINYDKKTKEHSCKIEEYRK | not soluble
20 | MGPEGALPKASEATVCANNSKVSSPGEKVVLWTREADRVILTMCQEQGAQPHTFSVISQQLGNKTPVEVSHRFRELMQLFHTACEASSEDEDDATSTSNADQLSDHGDLLSEEELDE | soluble
21 | MGPLVKEKYEEVEQIPLKKPHIVSLIGGFGYREPIFRKVLTTAALDSGINYTLISGPSLDPSKFKEIPKNVQILRFVGDTFPYIRSSDAVIAPGGHSTMMEALSFGTPILSFPDEGHSEQENNAAVIEEEGYGRMLSYSTPPEVILECIREVLEDKKYRDKVKRLQRLASELDGLEHHHHHH | soluble
